# Changes are numbered by the printed parent chain. Names may count otherwise. Where two headings read alike, the source gives them in different places.
# B1: full-length human phenylalanine hydroxylase (enzyme, UniProt P00439 1-452, looked up)
# chain: MSTAVLENPGLGRKLSDFGQETSYIEDNCNQNGAISLIFSLKEEVGALAKVLRLFEENDVNLTHIESRPSRLKKDEYEFFTHLDKRSLPALTNIIKILRHDIGATVHELSRDKKKDTVPWFPRTIQELDRFANQILSYGAELDADHPGFKDPVYRARRKQFADIAYNYRHGQPIPRVEYMEEEKKTWGTVFKTLKSLYKTHACYEYNHIFPLLEKYCGFHEDNIPQLEDVSQFLQTCTGFRLRPVAGLLSSRDFLGGLAFRVFHCTQYIRHGSKPMYTPEPDICHELLGHVPLFSDRSFAQFSQEIGLASLGAPDEYIEKLATIYWFTVEFGLCKQGDSIKAYGAGLLSSFGELQYCLSEKPKLLPLELEKTAIQNYTVTEFQPLYYVAESFNDAKEKVRNFAATIPRPFSVRYDPYTQRIEVLDNTQQLKILADSINSEIGILCSALQKIK
# B2: hPAH mutant Y377F (enzyme, human, UniProt P00439 1-452, looked up)
# chain: B1 chain with Y377F
# B3: hPAH mutant Y138F (enzyme, human, UniProt P00439 1-452, looked up)
# chain: B1 chain with Y138F
# B4: hPAH mutant S23A (enzyme, human, UniProt P00439 1-452, looked up)
# chain: B1 chain with S23A
# B5: ΔN13-hPAH (human phenylalanine hydroxylase lacking the N-terminal 13 residues) (enzyme, UniProt P00439 14-452, looked up)
# chain: KLSDFGQETSYIEDNCNQNGAISLIFSLKEEVGALAKVLRLFEENDVNLTHIESRPSRLKKDEYEFFTHLDKRSLPALTNIIKILRHDIGATVHELSRDKKKDTVPWFPRTIQELDRFANQILSYGAELDADHPGFKDPVYRARRKQFADIAYNYRHGQPIPRVEYMEEEKKTWGTVFKTLKSLYKTHACYEYNHIFPLLEKYCGFHEDNIPQLEDVSQFLQTCTGFRLRPVAGLLSSRDFLGGLAFRVFHCTQYIRHGSKPMYTPEPDICHELLGHVPLFSDRSFAQFSQEIGLASLGAPDEYIEKLATIYWFTVEFGLCKQGDSIKAYGAGLLSSFGELQYCLSEKPKLLPLELEKTAIQNYTVTEFQPLYYVAESFNDAKEKVRNFAATIPRPFSVRYDPYTQRIEVLDNTQQLKILADSINSEIGILCSALQKIK
# How the values were obtained:
# [1] = biological target: catalytic domain of human phenylalanine hydroxylase (hPAH-CD) (human); assay: crystal structure
# cryo-EM structure = biological target: the molecule itself; assay: cryo-EM structure
# [2] = biological target: the molecule itself
# crystal structure = biological target: the molecule itself; assay: crystal structure
Molecule,stoichiometry N [2],further results
catalytic domain of human phenylalanine hydroxylase (hPAH-CD) (domain or fragment),–,stoichiometry N [1]: 2
B1,–,stoichiometry N (cryo-EM structure): 4
B2,4,–
B3,4,–
B4,4,–
B5,–,stoichiometry N (crystal structure): 4

# — doi:10.1101/552281 (bioRxiv, 2019)
